From patent US11300572B2, “Methods and systems for producing nanolipoprotein particles” (LAWRENCE LIVERMORE NATIONAL SECURITY, LLC, priority 2007, dated 2022)

Format: physicochemical
Experimental: Cell-free reactions were then performed. In particular, preparative reactions are carried out using the Invitrogen's Expressway Maxi kit or Roche's RTS 500 ProteoMaster Kit. Basically, lyophilized reaction components (Lysate, Reaction Mix, Amino Acid Mix, Methionine) are dissolved in Reconstitution Buffer and combined as specified by the manufacturer. For co-expression a total of 5 μg of each plasmid DNA (bOp and Δ49A1) was added to the lysate mixture with added DMPC vesicles and retinal cofactor (see below). The reactions were incubated at 30° C. or 37° C. for 4-24 h. For membrane protein survey studies co-expression of 0.2 ug Δ49A1 DNA and 1 ug of each membrane protein DNA was added to the cell-free mixture where [^35S]Met (135 mCi/mmol final) (Perkin Elmer, Waltham, Mass.) was added in place of methionine. The soluble fraction was obtained by centrifuging the reactions at 14000×g for 5 min. Autoradiograms were generated by overnight exposures to proteins separated by SDS-PAGE (data not shown). Percent solubility was determined using ImageJ software (U. S. National Institutes of Health) to quantize autoradiogram bands for the soluble fractions in the presence and absence of apolipoprotein Δ49A1.
All were expressed in the presence of 30-50 μM all-trans-retinal and 2 mg/mL DMPC. […]
The NLPs were also analyzed by SDS Page. […]

B1: bR: bacteriorhodopsin from H. salinarium, seven transmembrane protein, cell-free expressed from bOp with all-trans retinal (protein, UniProt P02945 14-262, looked up)
Bacteriorhodopsin: QAQITGRPEWIWLALGTALMGLGTLYFLVKGMGVSDPDAKKFYAITTLVPAIAFTMYLSMLLGYGLTMVPFGGEQNPIYWARYADWLFTTPLLLLDLALLVDADQGTILALVGADGIMIGTGLVGALTKVYSYRFVWWAISTAAMLYILYVLFFGFTSKAESMRPEVASTFKVLRNVTVVLWSAYPVVWLIGSEGAGIVPLNIETLLFMVLDVSAKVGFGLILLRSRAIFGEAEAPEPSAGDGAAATSD
modifications: all-trans retinal chromophore
  solubility of bR: insoluble
